Data published in article PMC5587807.
pKd: −log10 of the molar value.

Experiments:
[1] = test system: DNA polymerase beta (Pol β) WT (human); assay: EMSA; conditions: EMSA: 50 nM substrate, 50 mM Hepes pH 7.5, 37 mM KCl, 5 mM MgCl2, 0.5 mM EDTA, 100 ug/ml BSA, on ice 10 min, gel at 4 C, FA: 50 mM Hepes pH 7.5, 20 mM KCl, 2 mM
[2] = test system: Pol β V303C, 5-iodoacetamidofluorescein labeled; assay: fluorescence anisotropy; conditions: 5'-phosphorylated tetrahydrofuran at 5' end of nick; biotin at 5' ends; EMSA: 50 nM substrate, 50 mM Hepes pH 7.5, 37 mM KCl, 5 mM MgCl2, 0.5 mM EDTA, 100 ug/ml BSA, on ice 10 min, gel at 4 C; FA: 50 mM Hepes pH 7.5, 20 mM KCl, 2 mM
[3] = 5'-phosphorylated tetrahydrofuran at 5' end of nick

UND-DNA showed a pKd [1] of 7.30.

DNA-gI (-49) was tested, and the pKd ([1]; 5'-phosphate and 3'-OH at gap) was 7.52.

UND NCP was tested, and the pKd [1] was 6.13.

In the case of DNA-gO (-35), the pKd ([1]; 5'-phosphate and 3'-OH at gap) was 7.70.

DNA-5'-P-THF-O (-35) was tested, and the pKd [1, 3] was 7.70.

In the case of NCP-gO (-35), the pKd ([1]; 5'-phosphate and 3'-OH at gap) was 6.34.

NCP-5'-P-THF-O (-35), 5'-biotin gave a pKd [2] of 6.55.

In the case of NCP-5'-P-THF-O (-35), the pKd [1, 3] was 6.44.

NCP-gI (-49) showed a pKd ([1]; 5'-phosphate and 3'-OH at gap) of 6.77.
